Laboratory results published in patent US20240228595A1.

Target: SARS-COV-2 RBD-his tag protein (Sino Biological) (SARS-CoV-2) (UniProt P0DTC2)
Assay: ELISA, SARS-CoV-2-WA-1 RBD coated, antibody titrated

S309 (Sotrovimab) (antibody) was tested, and the EC50 was 2 ng/mL.
